Measured values reported in patent US20050202430A1 (Novartis, published 2005).

Target: T1, alpha9 integrin on transfected SW480 colon carcinoma cells (UniProt Q13797 30-1035; P05556 21-798)
T1 construct: whole, on cells; also called α9 integrin; alpha9 beta1 integrin
Assay: adhesion of transfected SW480 cells to wells coated with tenascin-W
From the text: IDG tripeptide motifs have been reported to be the recognition sequence for alpha9 beta1 integrin (Yokosaki et al., 1998). Since mouse tenascin-W contains three IDG motifs we investigated whether α9 integrin could be the receptor for tenascin-W. We plated SW480 colon carcinoma cells transfected either with an empty vector or with the vector containing the cDNA for α9 integrin (Yokosaki et al. J Biol. Chem. 1996 Sep. 27;271(39):24144-50) on tenascin-W coated wells.

T1 sequence (Q13797 30-1035, chain 1 of 2): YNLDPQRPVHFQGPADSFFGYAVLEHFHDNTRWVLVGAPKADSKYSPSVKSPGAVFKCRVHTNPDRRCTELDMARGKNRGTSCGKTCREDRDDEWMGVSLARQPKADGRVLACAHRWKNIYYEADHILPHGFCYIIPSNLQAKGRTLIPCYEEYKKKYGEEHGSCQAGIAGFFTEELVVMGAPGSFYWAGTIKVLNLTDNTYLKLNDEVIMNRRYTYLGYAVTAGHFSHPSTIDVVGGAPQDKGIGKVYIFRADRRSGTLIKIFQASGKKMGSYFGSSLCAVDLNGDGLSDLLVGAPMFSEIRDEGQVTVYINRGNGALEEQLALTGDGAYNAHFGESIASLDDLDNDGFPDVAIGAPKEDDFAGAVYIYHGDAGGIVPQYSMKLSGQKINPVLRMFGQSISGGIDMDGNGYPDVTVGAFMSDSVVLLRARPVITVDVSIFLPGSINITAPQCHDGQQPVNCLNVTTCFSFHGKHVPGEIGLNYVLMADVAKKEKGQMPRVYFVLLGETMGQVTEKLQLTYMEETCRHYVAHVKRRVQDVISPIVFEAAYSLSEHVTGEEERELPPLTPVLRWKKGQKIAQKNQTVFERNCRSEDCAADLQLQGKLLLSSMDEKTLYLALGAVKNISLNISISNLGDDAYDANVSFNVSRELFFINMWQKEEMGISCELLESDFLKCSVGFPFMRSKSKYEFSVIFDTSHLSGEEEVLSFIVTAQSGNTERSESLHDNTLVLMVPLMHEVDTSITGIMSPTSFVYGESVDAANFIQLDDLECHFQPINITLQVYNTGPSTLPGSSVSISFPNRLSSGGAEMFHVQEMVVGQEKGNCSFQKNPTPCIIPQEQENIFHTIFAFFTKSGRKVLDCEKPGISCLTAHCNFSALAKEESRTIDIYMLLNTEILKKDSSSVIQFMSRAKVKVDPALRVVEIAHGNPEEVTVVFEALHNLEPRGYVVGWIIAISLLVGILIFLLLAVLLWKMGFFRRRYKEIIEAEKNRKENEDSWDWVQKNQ
T1 sequence (P05556 21-798, chain 2 of 2): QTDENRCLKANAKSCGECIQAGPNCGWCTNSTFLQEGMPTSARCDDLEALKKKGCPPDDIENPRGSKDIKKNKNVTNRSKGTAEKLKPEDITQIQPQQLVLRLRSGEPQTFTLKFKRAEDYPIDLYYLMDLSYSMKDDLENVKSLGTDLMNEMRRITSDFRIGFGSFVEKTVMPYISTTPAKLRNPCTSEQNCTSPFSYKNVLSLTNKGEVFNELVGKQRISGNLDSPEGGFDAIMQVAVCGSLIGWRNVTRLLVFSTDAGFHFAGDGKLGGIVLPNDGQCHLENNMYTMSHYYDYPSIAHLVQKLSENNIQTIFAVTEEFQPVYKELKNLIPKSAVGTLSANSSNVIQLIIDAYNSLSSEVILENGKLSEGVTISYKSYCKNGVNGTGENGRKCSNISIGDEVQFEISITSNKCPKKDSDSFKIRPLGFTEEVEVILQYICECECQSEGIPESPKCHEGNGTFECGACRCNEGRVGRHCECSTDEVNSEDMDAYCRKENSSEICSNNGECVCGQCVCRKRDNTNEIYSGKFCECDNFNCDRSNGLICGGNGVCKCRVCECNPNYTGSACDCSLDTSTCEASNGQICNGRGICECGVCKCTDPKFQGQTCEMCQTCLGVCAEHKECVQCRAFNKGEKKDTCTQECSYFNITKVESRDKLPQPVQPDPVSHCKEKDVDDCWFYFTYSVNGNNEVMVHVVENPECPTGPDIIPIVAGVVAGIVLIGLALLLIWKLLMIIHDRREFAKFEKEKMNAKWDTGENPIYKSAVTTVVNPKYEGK

- binding result: no binding
B1: purified full-length recombinant mouse tenascin-W (C-terminal 6xHis-tag, secreted from HEK 293 cells) (ligand)
chain: TPESPGCSNKEQQVTVSHTYKIDVPKSALVQVETDPQSLSDDGTSLLAPGEDGEEQNIIFRHNIRLQTPQKNCDLADSVQDLLARMKKLEEEMAELKEQCNTNRCCQGAADLSRHCSGHGTFLPETCSCHCDQGWEGADCDQPTCPGACNGHGRCVDGQCVCDAPYVGVDCAYAACPQDCSGHGVCVQGVCQCHEDFTAEDCSEQRCPGDCSGNGFCDTGECYCEMGFTGPDCSQVVAPQGLQLLKSTENSLLVSWEPSSEVDYYLLSYYPLGKEQATKQVRVPKEQHTYDITGLLPGTKYIVTLRNVKKDISSSPQHLLATTDLAVLGTAWVNEETETSLDVEWENPLTEVDYYKLRYGPLTGQEVTEVTVPKSRDPKSRYDITGLQPGTEYKITVVPIRGDLEGKPILLNGRTEIDGPTNVVTNQVTEDTASVSWDPVRADIDKYVVRYIAPDGETKEKAVPKDQSSTVLTGLKPGEAYKVFVWAERGNQGSKKADTKALTEIDSPENLVTDRVTENSLSVSWDPVEADIDRYVVSYTSVDGETKQVPVKKDQRSTVLTGLSPGVEYKVYVWAEKGDRESKKANTKAPTDIDSPKNLVTDQVTENTLSVSWDPVQANIDRYMVSYTSADGETREVPVPKEKSSTVLTGLRPGVEYKVHVWAQKGTQESRKANTKAPTDIDGPKNLVTDQVTETTLSVSWDPVEADIDRYMVRYTSPDGETKEVPVSKDKSSTVLRGLRPGVEYKVDVWAQKGAQDSRKANTKAPTDIDSPKNLVTEQVAESTATVSWDPVEADIDRYVVRYTSADGETREIPVRKEKSSTVLTGLRPGVEYTVQVWAQKGARESKKAKTKAPTEIDSPKNLVTNRVTENTATISWDPVRANIDRYMVRYTSADGETKEIPVSKDQSNTILTGLKPGMEYTIHVWAQKGARESKKADTKALTEIDPPRNLRPFGVTHSGGVLTWLPPSAQIDGYILTYQFPNGTVKGVELPRGQQRFELQDLEQGVTYPVSLVAFKGNQRSRTVSTTLSTVDARFPHPSDCSQVQQNTNAASGLYTIYLNGDASRPMQVYCDMDTDGGGWIVFQRRNTGQLDFFKRWRSYVEGFGDPMKEFWLGLDKLHNLTTGTTTRYEVRADLQTFNESAYAVYDFFQVASSKERYKLSVGKYRGTAGDALTYHNGWKFTTFDRDSDIALSNCALTHHGGWWYKNCHLANPNGKYGETKHSEGVNWEPWKGHEFSIPYVELKIRPFGYSRDRFSGRKKRSIGKARMFHHHHHH
notes: also called full length mouse tenascin-W protein; purified tenascin-W
